Experimental data taken from PMC12689202.

Target: C3b (biotinylated) (human) (UniProt P01024)
Assay: BLI; Octet RH384 (Sartorius); biotinylated C3b immobilized onto streptavidin biosensors; mini-CR1, FH or FHL-1 in the fluid phase

| Substance | Kd [nM] |
| --- | --- |
| factor H (from UniProt P08603 19-1231) (natural protein) | 583 |
| mini-CR1 (soluble fragment of complement receptor 1, complement control proteins 8-10) (domain or fragment) | 21 |
| factor H-like protein 1 (from UniProt P08603-2 19-449) (natural protein) | 1170 |
